The record followed here is US20240228562A1, “NOVEL LIPOCALIN MUTEINS SPECIFIC FOR CONNECTIVE TISSUE GROWTH FACTOR (CTGF)” (PIERIS PHARMACEUTICALS GMBH, priority 2021, published 2024).

A short description of data set [1]: Thermal stability assessment by nanoDSC. The following applies: 1 mg/mL in PBS, scan 25-100° C. at 1° C./min; for TM: major transition. In kind it is physicochemical. As for the experimental part: To determine the melting temperatures (Tms) of the lipocalin muteins, which is a general indicator for folding stability, the CTGF specific muteins, at a protein concentration of 1 mg/mL in PBS (Gibco), were scanned (25-100° C.) at 1° C./min using a capillary nanoDSC instrument (CSC 6300, TA Instruments). […] Several unfolding events can contribute to the observed thermogram. In cases with multiple transitions, the one with the major unfolding energy best represents the overall protein fold and is reported. Muteins were produced as described in Example 3. SEQ ID NOs: 3, 7, 9, 25, and 29 were expressed using E. coli, the other muteins were expressed using CHO cells.
The resulting maximum melting temperatures as well as the onset temperature of melting for exemplary lipocalin muteins and fusion proteins are listed in Table 3 below.

Data set [2] concerns the target T1, human CTGF (Homo sapiens, UniProt P29279, H83D).
T1 construct: purchased Creative Biomart
Description: SPR binding kinetics and affinity, human CTGF. The arrangement: key to human CTGF kon / human CTGF koff / human CTGF KD: B binding without determination of kinetics constants. The following applies: 25° C., 1:1 binding model. How it is done: (§1) Surface plasmon resonance (SPR) was used to measure binding kinetics and affinity of the representative lipocalin muteins disclosed herein.
(§2) The binding of exemplary lipocalin muteins to human (Creative Biomart), cynomolgus, rat (R&D Systems) and mouse CTGF (Abbexa) was determined by SPR using a Biacore instrument (Cytiva, formerly GE Healthcare). Some targets were fused to a human IgG1 Fc tag, and captured via the anti-human IgG antibody kit, others were directly immobilized.
(§3) For some measurements, human CTGF with a human IgG1 Fc Tag or rat or murine CTGF without a tag were directly immobilized to a CM5 Chip. The carboxyl groups on the chip were activated using 1-ethyl-3-(3-dimethylaminopropyl)-carbodiimide (EDC) and N-hydroxysuccinimide (NHS). Subsequently, the targets at a concentration of 3-5 μg/mL in 10 mM sodium acetate (pH) 4.5 were applied at a flow rate of 10 μL/min until an immobilization level of 300-1100 resonance units was achieved. Residual non-reacted NHS-esters were blocked by passing a solution of 1 M ethanolamine across the surface. The reference channel was activated/deactivated. For the capture setting, targets with an IgG Fc Tag at 0.25-2.5 μg/mL in HBS-EP+ buffer were captured by the anti-human IgG-Fc antibody at the chip surface for 180 s at a flow rate of 10 μL/min.
(§4) The binding assay was carried out with a contact time of 180 s, a dissociation time of 900-3600 s and a flow rate of 30 μL/min. All measurements were performed at 25° C. […] For the directly immobilized targets, the same regeneration conditions were used. Prior to the protein measurements, three startup cycles were performed for conditioning purposes. Data were evaluated with Biacore Evaluation software. Double referencing was used and the 1:1 binding model was used to fit the raw data.
For orientation: In SPR one partner is held on a chip, and binding of the other changes the refractive index at the surface.

For a further data set, the target named is T2, Murine CTGF (Mus musculus, UniProt P29268).
T2 construct: purchased Abbexa
T2 sequence (P29268 26-348): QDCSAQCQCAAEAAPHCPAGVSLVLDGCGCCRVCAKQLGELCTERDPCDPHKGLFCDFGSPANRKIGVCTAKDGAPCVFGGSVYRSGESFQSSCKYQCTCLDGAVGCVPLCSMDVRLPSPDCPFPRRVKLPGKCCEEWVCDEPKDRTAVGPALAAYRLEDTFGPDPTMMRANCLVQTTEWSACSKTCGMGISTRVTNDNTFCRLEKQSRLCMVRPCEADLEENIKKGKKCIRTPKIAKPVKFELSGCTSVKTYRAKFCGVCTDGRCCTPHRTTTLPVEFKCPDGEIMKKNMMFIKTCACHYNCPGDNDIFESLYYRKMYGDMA
Briefly: SPR binding kinetics and affinity, murine CTGF. The following applies: 25° C., 1:1 binding model. The arrangement: key to Murine CTGF kon / Murine CTGF koff / Murine CTGF KD: B binding without determination of kinetics constants. As for the experimental part: as §1, §2, §3, §4
The values determined for kon, koff and the resulting equilibrium dissociation constant (KD) for exemplary lipocalin muteins are summarized in Table 4.

The target of data set [3] is T3, human CTGF (Homo sapiens, UniProt P29279).
T3 construct: purchased Creative Biomart
Description: SPR binding kinetics and affinity, human CTGF. The arrangement: key to human CTGF kon / human CTGF koff / human CTGF KD: B binding without determination of kinetics constants. The following applies: 25° C., 1:1 binding model. As for the experimental part:
as §1, §2, §3, §4

T3 sequence (P29279 with tags, fused parts or gaps H83D): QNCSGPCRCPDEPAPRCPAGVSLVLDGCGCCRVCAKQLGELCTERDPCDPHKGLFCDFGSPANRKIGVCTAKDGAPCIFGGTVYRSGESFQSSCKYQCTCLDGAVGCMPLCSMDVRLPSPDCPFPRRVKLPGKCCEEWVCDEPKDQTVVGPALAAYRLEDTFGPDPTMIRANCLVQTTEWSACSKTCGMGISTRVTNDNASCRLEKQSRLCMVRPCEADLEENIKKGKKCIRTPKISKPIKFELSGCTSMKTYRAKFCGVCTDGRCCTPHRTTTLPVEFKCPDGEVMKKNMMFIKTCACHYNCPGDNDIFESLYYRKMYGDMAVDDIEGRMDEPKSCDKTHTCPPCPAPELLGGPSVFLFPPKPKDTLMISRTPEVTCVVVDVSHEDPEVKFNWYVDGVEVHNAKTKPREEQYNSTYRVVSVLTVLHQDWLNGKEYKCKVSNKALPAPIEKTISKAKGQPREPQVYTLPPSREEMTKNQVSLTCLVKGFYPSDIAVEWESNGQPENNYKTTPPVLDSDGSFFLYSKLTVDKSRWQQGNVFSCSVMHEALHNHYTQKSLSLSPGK
T1 sequence (P29279 with tags, fused parts or gaps H83D): as above

B1: SEQ ID NO: 73: fusion protein comprising two CTGF-binding lipocalin muteins (protein)
chain: QDSTSDLIPAPPLSKVPLQQNFQDNQFQGKWYVVGLAGNAILREDKYPAKMFATIYELKEDKSYDVTSVRFENKSCVYTSKTFVPGSQPGEFTTGNIKSAPGQTSTLVRVVSTNYNQHAMVFFKHVSQNREFFVITLYGRTKELTSELKENFIRFSKSLGLPENHIVFPVPIDQCIDGGGGGSGGGGSGGGGSQDSTSDLIPAPPLSKVPLQQNFQDNQFQGKWYVVGWAGNVKLREDKQPQKMSATIYELKEDKSYDVTEVVFEQKKCHYIIKTFVPGSQPGEFTAGDIKSPPGYTSSLVRVVSTNYNQHAMVFFKKVSQNREFFWITLYGRTKELTSELKENFIRFSKSLGLPENHIVFPVPIDQCIDG
modifications: fusion protein
With B1, in data set [1], the “ONSET MELTING” value came to 71 °C and the TM came out at 75 °C.

B2: SEQ ID NO: 17: optimized CTGF-binding hNGAL lipocalin mutein (protein)
chain: QDSTSDLIPAPPLSKVPLQQNFQDNQFQGKWYVVGLAGNAILRTDKQPAKMFATIYELKEDKSYDVTSVRFEAKSCVYTSKTFVPGSQPGEFTAGNIKSAPGQTSTLVRVVSTNYNQHAMVFFKHVSQNREFFVITLYGRTKELTSELKENFIRFSKSLGLPENHIVFPVPIDQCIDG
modifications: lipocalin mutein
Consider B2, for which, in data set [1], the “ONSET MELTING” value came out at 59 °C and the TM came out at 74 °C. For the same molecule, in the data set with human CTGF [2], the “human CTGF KD” value is “B”, the “human CTGF koff” value is listed as “B” and the “human CTGF kon” value is “B”. Besides, in the data set with Murine CTGF, the “Murine CTGF KD” value is given as “B”, the “Murine CTGF koff” value is listed as “B” and the “Murine CTGF kon” value is “B”.

B3: SEQ ID NO: 13: optimized CTGF-binding hNGAL lipocalin mutein (protein)
chain: QDSTSDLIPAPPLSKVPLQQNFQDNQFQGKWYVVGLAGNAILREDKYPAKMFATIYELKEDKSYDVTSVRFENKSCVYTSKTFVPGSQPGEFTTGNIKSAPGQTSTLVRVVSTNYNQHAMVFFKHVSQNREFFVITLYGRTKELTSELKENFIRFSKSLGLPENHIVFPVPIDQCIDG
modifications: lipocalin mutein
As to B3, the “human CTGF koff” value with human CTGF [3] stood at 2.51e-06 s⁻¹. Besides, in the data set with human CTGF [2], the “human CTGF kon” value worked out at 51000 M⁻¹ s⁻¹. In the data set with Murine CTGF, the “Murine CTGF KD” value was “B”, the “Murine CTGF koff” value is “B” and the “Murine CTGF kon” value is listed as “B”.

B4: SEQ ID NO: 18: optimized CTGF-binding hNGAL lipocalin mutein (protein)
chain: QDSTSDLIPAPPLSKVPLQQNFQDNQFQGKWYVVGIAGNAILRDDKYPAKMFATIYELKEDKSYDVTSVRFENKSCIYTIKTFVPGSQPGEFTHGNIKSHPGQTSTLVRVVSTNYNQHAMVFFKHVSQNREIFVITLYGRTKELTSELKENFIRFSKSLGLPENHIVFPVPIDQCIDG
modifications: lipocalin mutein
Regarding B4, the “human CTGF koff” value with human CTGF [3] came to 3.05e-06 s⁻¹. Moreover, in the data set with human CTGF [2], the “human CTGF kon” value worked out at 40900 M⁻¹ s⁻¹. Besides, in the data set with Murine CTGF, the “Murine CTGF KD” value was “B”, the “Murine CTGF koff” value is given as “B” and the “Murine CTGF kon” value is on record as “B”.

B5: SEQ ID NO: 11: optimized CTGF-binding hNGAL lipocalin mutein (protein)
chain: QDSTSDLIPAPPLSKVPLQQNFQDNQFQGKWYVVGLAGNAILREDKQPAKMFATIYELKEDKSYDVTSVRFEAKSCSYTSKTFVPGSQPGEFTAGNIKSAPGQTSTLVRVVSTNYNQHAMVFFKHVSQNRETFVITLYGRTKELTSELKENFIRFSKSLGLPENHIVFPVPIDQCIDG
modifications: lipocalin mutein
Consider B5, for which, in the data set with human CTGF [3], the “human CTGF koff” value was 0.000108 s⁻¹. In addition, the “human CTGF kon” value with human CTGF [2] was found to be 44400 M⁻¹ s⁻¹. For the same molecule, in the data set with Murine CTGF, the “Murine CTGF koff” value turned out to be 8.19e-05 s⁻¹ and the “Murine CTGF kon” value was determined as 80100 M⁻¹ s⁻¹.

B6: SEQ ID NO: 20: optimized CTGF-binding hNGAL lipocalin mutein (protein)
chain: QDSTSDLIPAPPLSKVPLQQNFQDNQFQGKWYVVGLAGNAILREDKQPAKMFATIYELKEDKSYDVTSVRFEAKSCSYTIKTFVPGSQPGEFTAGNIKSAPGQTSTLVRVVSTNYNQHAMVFAKAVQLNREHFFITLYGRTKELTSELKENFIRFSKSLGLPENHIVFPVPIDQCIDG
modifications: lipocalin mutein
Consider B6, for which, in data set [1], the “ONSET MELTING” value is 46 °C and the TM was found to be 61 °C. Moreover, in the data set with human CTGF [2], the “human CTGF KD” value is given as “B”, the “human CTGF koff” value is recorded as “B” and the “human CTGF kon” value was “B”. In addition, in the data set with Murine CTGF, the “Murine CTGF KD” value is “B”, the “Murine CTGF koff” value was “B” and the “Murine CTGF kon” value was “B”.

B7: SEQ ID NO: 12: optimized CTGF-binding hNGAL lipocalin mutein (protein)
chain: QDSTSDLIPAPPLSKVPLQQNFQDNQFQGKWYVVGLAGNAILREDKYPAKMFATIYELKEDKSYDVTSVRFENKSCVYTIKTFVPGSQPGEFTTGNIKSAPGQTSTLVRVVSTNYNQHAMVFFKHVSQNREFFVITLYGRTKELTSELKENFIRFSKSLGLPENHIVFPVPIDQCIDG
modifications: lipocalin mutein
For the molecule B7, in the data set with human CTGF [3], the “human CTGF koff” value stood at 0.000133 s⁻¹. Also, in the data set with human CTGF [2], the “human CTGF kon” value is 55600 M⁻¹ s⁻¹. Also, in the data set with Murine CTGF, the “Murine CTGF koff” value came out at 0.000128 s⁻¹ and the “Murine CTGF kon” value worked out at 91400 M⁻¹ s⁻¹.

B8: SEQ ID NO: 8: optimized CTGF-binding hNGAL lipocalin mutein (protein)
chain: QDSTSDLIPAPPLSKVPLQQNFQDNQFQGKWYVVGLAGNYGLRTDKRPSKMFATIYELKEDKSYDVTSVRFEQERCHYTIRTFVPGSQPGEFTSGNIGNYPGSYSTLVRVVSTNYNQHAMVFFKSVIQNREYFAITLYGRTKELTSELKENFIRFSKSLGLPENHIVFPVPIDQCIDG
modifications: lipocalin mutein
With B8, in data set [1], the “ONSET MELTING” value worked out at 49 °C and the TM stood at 75 °C. For the same molecule, in the data set with human CTGF [3], the “human CTGF koff” value was 0.000114 s⁻¹. Further, the “human CTGF kon” value with human CTGF [2] came out at 45400 M⁻¹ s⁻¹. Also, in the data set with Murine CTGF, the “Murine CTGF koff” value amounted to 0.000131 s⁻¹ and the “Murine CTGF kon” value was found to be 72000 M⁻¹ s⁻¹.

B9: SEQ ID NO: 75: fusion protein comprising two CTGF-binding lipocalin muteins (protein)
chain: QDSTSDLIPAPPLSKVPLQQNFQDNQFQGKWYVVGLAGNAILREDKQPAKMFATIYELKEDKSYDVTSVRFEAKSCKYTIKTFVPGSQPGEFTAGYIKSAPGQTSTLVRVVSTNYNQHAMVFFKHVTQNREIFVITLYGRTKELTSELKENFIRFSKSLGLPENHIVFPVPIDQCIDGGGGGSGGGGSGGGGSQDSTSDLIPAPPLSKVPLQQNFQDNQFQGKWYVVGLAGNYRLREDKDPSKMGATIYELKEDKSYDVTQVQFDDKKCLYVIETFVPGSQPGEFTLGAIKSYPGLTSQLVRVVSTNYNQHAMVFVKKVWPNLEYFQIVLYGRTKELTSELKENFIRFSKSLGLPENHIVFPVPIDQCIDG
modifications: fusion protein
Consider B9, for which, in data set [1], the “ONSET MELTING” value was found to be 58 °C and the TM came out at 65 °C.
